Laboratory results: US20160145333A1 (Amgen, published 2016)

Experiments:
[1] = target: T1, Human CB1 receptor (cannabinoid receptor-1), wild type (human, UniProt P21554 1-472); test: cell-based or functional assay
[2] = target: T2, Mouse CB1 receptor, wild type (mouse, UniProt P47746 1-473); test: FACS on transfected cells
T2 construct: also called mCB1; V5-mCB1

[3] = target: T1, Human CB1 receptor (cannabinoid …); test: method not given

T1 sequence (P21554 whole entry): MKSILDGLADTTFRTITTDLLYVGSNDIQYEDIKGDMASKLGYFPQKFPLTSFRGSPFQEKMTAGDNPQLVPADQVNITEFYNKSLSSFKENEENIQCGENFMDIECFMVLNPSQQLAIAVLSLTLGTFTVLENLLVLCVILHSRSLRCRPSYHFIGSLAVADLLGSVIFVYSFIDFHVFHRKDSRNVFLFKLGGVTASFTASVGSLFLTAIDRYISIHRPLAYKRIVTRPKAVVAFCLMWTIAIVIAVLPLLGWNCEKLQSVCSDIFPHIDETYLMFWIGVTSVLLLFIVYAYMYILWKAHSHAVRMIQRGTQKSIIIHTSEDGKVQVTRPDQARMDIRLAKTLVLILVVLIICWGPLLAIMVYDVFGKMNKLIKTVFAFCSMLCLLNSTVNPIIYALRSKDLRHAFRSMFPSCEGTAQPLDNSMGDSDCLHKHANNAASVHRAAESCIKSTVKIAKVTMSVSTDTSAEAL
T2 sequence (P47746 whole entry): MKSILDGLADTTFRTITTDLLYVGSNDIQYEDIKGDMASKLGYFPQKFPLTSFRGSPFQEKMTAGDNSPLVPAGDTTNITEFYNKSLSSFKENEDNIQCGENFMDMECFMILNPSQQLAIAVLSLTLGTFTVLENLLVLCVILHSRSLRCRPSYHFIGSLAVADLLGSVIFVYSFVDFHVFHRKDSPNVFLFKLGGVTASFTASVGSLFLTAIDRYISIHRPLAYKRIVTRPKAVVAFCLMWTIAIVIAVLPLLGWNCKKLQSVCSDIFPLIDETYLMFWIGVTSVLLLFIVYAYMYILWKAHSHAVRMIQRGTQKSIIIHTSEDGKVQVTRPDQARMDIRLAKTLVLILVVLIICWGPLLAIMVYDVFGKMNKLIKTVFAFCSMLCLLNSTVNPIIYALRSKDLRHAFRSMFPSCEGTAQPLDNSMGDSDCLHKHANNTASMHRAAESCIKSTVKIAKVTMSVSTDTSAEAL

B1: CB1 antibody 10D10 (antibody, human IgG2, kappa, V domains shown)
VH: QVQLQESGPGLVKPSQTLSLTCTVSGGSIRRGGDYWSWIRQHPGKGLEWIGYIYYSGSTNYNPSLKSRATISVDTSKNQFSLKLSSVTAADTAVYYCARDYDILTGYSYYYYGMDVWGQGTTVTVSS
VL: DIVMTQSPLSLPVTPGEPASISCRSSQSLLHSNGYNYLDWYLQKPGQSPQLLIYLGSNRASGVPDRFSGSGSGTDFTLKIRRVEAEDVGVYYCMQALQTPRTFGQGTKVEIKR
notes: Xenomouse (human) antibody; also called wild-type 10D10; WT HC / WT LC
For B1, the “IC50, GTP-Eu assay against anandamide” value [1] was 10.1 nM, the binding result [2] was “no binding” and the Kd [3] was less than 200 nM.
